Reference: patent US8217140B2, “Peptides capable of binding to serum proteins and compounds, constructs and polypeptides comprising the same” (Ablynx N.V., priority 2008, dated 2012)
Where two headings read alike, the source gives them in different places. Values belong to the molecule of their own block, whether it stands above or below them.

Experiments:
[1] = molecular target: T1, human serum albumin (Homo sapiens, UniProt P02768); test: Co-crystal structure and in silico modelling of peptide with human serum albumin; settings: crystal structure and modeling data
Description: The crystal structure was determined as follows: the purified proteins were used in crystallization trials employing both, a standard screen of approximately 1200 different conditions, as well as crystallization conditions identified using literature data. Conditions initially obtained have been optimized using standard strategies, systematically varying parameters critically influencing crystallization, such as temperature, protein concentration, drop ratio, etc. These conditions were also refined by systematically varying pH or precipitant concentrations. Crystals were obtained via the method of co-crystallization.
Crystals have been flash-frozen and measured at a temperature of 100K. The X-ray diffraction have been collected at the SWISS LIGHT SOURCE (SLS, Villigen, Switzerland) using cryogenic conditions. Data were processed using the programs XDS and XSCALE. The phase information necessary to determine and analyze the structure was obtained by molecular replacement. Subsequent model building and refinement was performed with the software packages CCP4 and COOT. The peptide parameterization was carried out with the program […].
Modeling of the interaction was performed using ICM-Pro (Molsoft) and Discovery Studio (Accelrys) with a force-field that is based on the parameters as described in Momany et al. (Momany et al. J. Phys. Chem. 1975, 79, 2361-2381)

[2] = molecular target: T1, human serum albumin; test: Phage ELISA on HSA-coated plates; format: binding; settings: phage clones; near-infrared fluorescence intensity vs phage dilution, FIG. 2
Description: 5-fold serial dilutions of phage clones (starting from ˜5×10^11 phage) were added to 96-well Nunc Maxisorp plates coated with human serum albumin (2 μg/ml in PBS, overnight at 4° C.; plates were blocked with Superblock T20 (Pierce) for 1 h at room temperature). The microtiter plate was washed with wash buffer (PBS, 0.05% Tween 20) and bound phages were detected with anti-M13 and goat-anti mouse IRDye conjugate (610-130-121, Rockland). The amount of IRDye bound was measured on Odyssey (LI-COR Biosciences). The dilution of phage was plotted against measured near-infrared fluorescence intensity (FIG. 2).

[3] = molecular target: T1, human serum albumin; test: Surface plasmon resonance (BIAcore 3000) of 2D3 fusion proteins, Example 6; format: binding
Description: (§1) The binding of the resulting 2D3-17D12 and 2D3-56H5 fusion proteins to human serum albumin was determined using surface plasmon resonance analysis. For this purpose, the fusion proteins were expressed in E. coli TG1 cells. The fusion proteins were purified by IMAC/SEC and binding to HSA was assessed in BIAcore™ 3000, by injecting 1 μM and 5 μM of the 2D3-17D12 and 2D3-56H5 fusion proteins on a CM5 chip coated with ˜7000 RU human serum albumin (Sigma, 99% pure) and 2460 RU an irrelevant protein antigen (reference). Coating of the chip (CM5) was performed by amine coupling using NHS/EDC for activation and ethanolamine for deactivation (Biacore amine coupling kit). HBS-EP was used as flow buffer at a rate of […]. 20 μl of sample was injected for 120 s. The 2D3 Nanobody was injected as control.

[4] = test system: irrelevant protein antigen; test: Surface plasmon resonance control on chip coated with irrelevant protein, Example 6; format: binding; settings: 5 μM injected; CM5 chip coated with irrelevant protein (2400RU)
Description: as §1

[5] = Pharmacokinetic profile in male cynomolgus monkeys: monovalent Nanobody 2D3 constructs; format: in vivo, Cynomolgus monkey
Description: The pharmacokinetic profile of this 2D3-9GS-EXP56E4 Nanobody construct (“construct” or “test item” hereafter) was analysed in male cynomolgus monkeys of approximately 3 to 4 years old and was compared to the 2D3 control (“control” or “negative control” hereafter). The construct and the control were each injected in three monkeys. Both the construct and the control were administered at a dose of 2 mg/kg via intravenous infusion. Blood samples were taken at predose, 5 min, 20 min, 1 h, 2 h, 4 h, 8 h, and 16 h after administration and at test days 2, 3, 5, 7, 9, 12, 15, 18, 21, 24, 27, 30, 33, 36, 39, 42, 45, 48, 51, 54, and 57 after the start of the infusion. In order to obtain at least 0.25 mL serum per animal per sampling time, a sufficient volume of whole blood was withdrawn per sampling time and the serum was isolated after 1 h of incubation at 37° C. The serum samples were stored at −80° C.
Serum samples were tested for serum levels of construct and the control, respectively, using the following ELISA assay.
96-well microtiter plates (Maxisorp, Nunc, Wiesbaden, Germany) were coated for 1 hour at 37° C. with Recombinant Human ErbB2/Fc Chimera, C F (R&D Systems, Minneapolis) in PBS at 3 μg/mL for the negative control and 4.5 μg/mL for the test item. Wells were aspirated and blocked for 30 minutes at room temperature (RT) with SuperBlock®T20 PBS (Pierce, Rockford, Ill.). After this blocking step, wells were washed with PBS-0.05% Tween20.
Preparations for the standards, QC samples and dilutions of the test samples were performed in a non-coated (polypropylene) plate.
Standard curve and QC-samples: Solutions at the required concentrations were prepared in PBS 0.1% casein and spiked into 100% monkey serum. To prepare standards and QC samples, a 1/10 dilution of the pure monkey serum dilutions was made in PBS-0.1% casein.
Test samples: Dilution factors for the test samples were estimated, and varied from 1/10 to 1/500. Samples were diluted 1/10 in PBS 0.1% casein in a first step, and if needed, further dilution was done in PBS 0.1% casein containing 10% monkey serum. These sample dilutions were further serially diluted 1/5 in PBS 0.1% casein with 10% monkey serum over 2 wells.
Standards, QC samples and the 1/5 dilutions of the test samples were transferred onto the coated plate and incubated for 1 hour at RT. Afterwards the plates were washed and rabbit polyclonal anti-VHH K1, purified against protein A and Her2/Fc depleted, was added at 1 μg/mL in PBS 0.1% casein, and incubated for 1 hour at RT. After washing a 1/2000 dilution in PBS 0.1% casein of horse radish peroxidase labelled goat anti-rabbit (Dakocytomation, Denmark) was added to the plate and incubated for 30 minutes at RT. This enzyme catalyzes a chemical reaction with the substrate sTMB (3,3′,5,5′-tetramethylbenzidine, SDT reagents, Brussels, Belgium), which results in a colorimetric change. After stopping this reaction after 15 minutes using HCl (1N), the intensity of the colour was measured by a spectrophotometer, which determines the optical density of the reaction product, using a 450 nm wavelength of light.
The concentration of the construct and the control in the serum samples was determined towards a standard curve of the construct and the control, respectively. The concentration determination was performed using the sigmoidal dose-response curve with variable slope. All serum samples were tested minimally in duplicate. Average values were reported. For each sample standard deviations and precision between the different results was calculated.
For blood sampling and processing, the pharmacokinetic profile of the constructs (2D3-9GS-EXP56E4 and 2D3-9GS-EXP59C2) and the negative control 2D3 were determined in male Cynomolgus monkeys of approximately 3 to 4 years old and was compared to that of the control (2D3). The constructs and the control were administered to three monkeys at a dose of 2 mg/kg by intravenous bolus injection. […]

[6] = molecular target: Cynomolgus monkey serum albumin (Macaca fascicularis, UniProt A2V9Z4); test: Surface plasmon resonance (BIAcore 3000) of 2D3-9GS-56E4 and 2D3-9GS-59C2, Example 11; format: binding
Cynomolgus monkey serum albumin, sequence (A2V9Z4 25-608): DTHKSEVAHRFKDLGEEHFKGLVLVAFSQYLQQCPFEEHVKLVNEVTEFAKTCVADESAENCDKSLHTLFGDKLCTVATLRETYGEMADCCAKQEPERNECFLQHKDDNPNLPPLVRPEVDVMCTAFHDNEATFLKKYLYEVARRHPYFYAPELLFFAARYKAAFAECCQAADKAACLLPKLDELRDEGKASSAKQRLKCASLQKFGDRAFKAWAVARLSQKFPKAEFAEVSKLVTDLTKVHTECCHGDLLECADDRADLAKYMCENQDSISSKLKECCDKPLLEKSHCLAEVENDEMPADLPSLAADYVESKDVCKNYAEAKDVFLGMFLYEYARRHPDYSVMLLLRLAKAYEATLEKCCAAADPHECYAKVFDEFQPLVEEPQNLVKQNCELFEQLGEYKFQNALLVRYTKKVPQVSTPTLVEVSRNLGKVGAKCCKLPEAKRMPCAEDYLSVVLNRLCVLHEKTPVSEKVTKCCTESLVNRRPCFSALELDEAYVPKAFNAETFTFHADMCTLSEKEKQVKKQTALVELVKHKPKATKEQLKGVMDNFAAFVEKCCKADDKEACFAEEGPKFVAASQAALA
Description: (§2) The binding was determined in BIAcore™ 3000, by injecting concentration series of the fusion proteins ranging from 2 μM to 200 nM on a CM5 chip coated with ˜3000 RU HSA or CSA. Coating of the chip (CM5) was performed by amine coupling using NHS/EDC for activation and ethanolamine for deactivation (Biacore amine coupling kit). HBS-EP was used as flow buffer at a rate of 45 μl min-1. 90 μl of sample was injected for 120 s.

[7] = molecular target: T1, human serum albumin; test: as above; format: binding
Description: as §2

[8] = serum, i.v. bolus 2 mg/kg, male Cynomolgus monkey, mean n = 3

Molecule: AAARYWDYDVFGGGTPVGGAAA [peptide of SEQ ID NO: 143, based on EXP56E4 with an additional N-terminal alanine and three C-terminal alanine residues]
binding site on human serum albumin [1]: binds in a deep subpocket of domain I of human serum albumin

B1: 2D3-56H5: SEQ ID NO: 139, fusion of Nanobody 2D3 and peptide 56H5 with Myc-His tag (protein)
chain: EVQLVESGGSLVQPGGSLRLSCAASGFTFDDYAMSWVRQVPGKGLEWVSSINWSGTHTDYADSVKGRFTISRNNANNTLYLQMNSLKSEDTAVYYCAKNWRDAGTTWFEKSGSAGQGTQVTVSSGGGGSGGGSAAAFYDDYDVFGGGTPAGGAAAEQKLISEEDLNGAAHHHHHH
modifications: Myc-His tag; fusion protein
binding to HSA (surface plasmon resonance, FIG. 5) ([3]; 1 μM and 5 μM injected, comparison with 2D3-17D12 fusion protein): improved binding | ka ([3]; CM5 chip ~7000 RU HSA): 7570 M⁻¹ s⁻¹ | kd ([3]; CM5 chip ~7000 RU HSA): 0.0093 s⁻¹ | specific binding to irrelevant protein [4]: no specific binding was detected

B2: 2D3-9GS-EXP56E4: SEQ ID NO: 142, fusion of peptide 56E4 and Nanobody 2D3 via 9GS linker (protein)
chain: EVQLVESGGSLVQPGGSLRLSCAASGFTFDDYAMSWVRQVPGKGLEWVSSINWSGTHTDYADSVKGRFTISRNNANNTLYLQMNSLKSEDTAVYYCAKNWRDAGTTWFEKSGSAGQGTQVTVSSGGGGSGGGSRYWDYDVFGGGTPVGG
Terminal Half-life ([5]; cynomolgus monkeys, 2 mg/kg intravenous infusion, Table IV): 8.54 ± 0.79 h | Vdss ([5]; i.v. bolus 2 mg/kg, male Cynomolgus monkey, mean n = 3): 0.0503 L/kg | t½ (terminal half-life) ([5]; i.v. bolus 2 mg/kg, male Cynomolgus monkey, mean n = 3, 2 mg/kg): 8.54 h | exposure higher and total body clearance (CL) lower than after 2D3 ([5]; on average, relative to control article 2D3): 23 fold | mean Vdss lower compared to 2D3 ([5]; relative to 2D3): 2.3 fold | terminal half-life (t½) increase relative to 2D3 ([5]; relative to 2D3): 4.2 fold | AUCinf [5, 8]: 458 µg·h/mL | C0 [5, 8]: 66.8 µg/mL | koff (dissociation rate constant) ([6]; dissociation rate): 0.00847 s⁻¹ | ka ([6]; untagged constructs): 1.71E+04 1/ms | Kd ([7]; dissociation rate): 0.00497 s⁻¹ | Kd ([7]; read-out: KD): 342 nM | ka ([7]; untagged constructs): 1.04E+04 1/ms

Other lines, results leading:

binding to HSA compared to the amino acid sequence of SEQ ID NO: 1 [2]: stronger binding
Molecule: AAPYRDYDVFGGGTPRGE [56 F2]

binding to HSA compared to the amino acid sequence of SEQ ID NO: 1 [2]: stronger binding
Molecule: AAYYYDYDVFGGGTPGGE [56 E2]
